Reference: patent US20210292396A1

How the values were obtained:
Assay in all cases: cell-based or functional assay
[1] = biological target: Env of HIV isolate 001428-2.42 (clade C) (HIV)
[2] = biological target: Env of HIV isolate 0330.v4.c3 (clade A) (HIV)
[3] = biological target: Env of HIV isolate 16936-2.21 (clade C) (HIV)
[4] = biological target: Env of HIV isolate 231965.c01 (clade D) (HIV)
[5] = biological target: Env of HIV isolate 398-F1.F6.20 (clade A) (HIV)
[6] = biological target: Env of HIV isolate 5768.04 (clade B) (HIV)
[7] = biological target: Env of HIV isolate 6095.v1.c10 (clade ACD) (HIV)
[8] = biological target: Env of HIV isolate 6471.v1.c16 (clade C) (HIV)
[9] = biological target: Env of HIV isolate 7165.18 (clade B) (HIV)
[10] = biological target: Env of HIV isolate 96ZM651.02 (clade C) (HIV)
[11] = biological target: Env of HIV isolate BI369.9A (clade A) (HIV)
[12] = biological target: Env of HIV isolate BJOX009000.02.4 (clade AE) (HIV)
[13] = biological target: Env of HIV isolate BJOX025000.01.1 (clade AE) (HIV)
[14] = biological target: Env of HIV isolate BX08.16 (clade B) (HIV)
[15] = biological target: Env of HIV isolate CNE10 (clade B) (HIV)
[16] = biological target: Env of HIV isolate CNE12 (clade B) (HIV)
[17] = biological target: Env of HIV isolate CNE14 (clade B) (HIV)
[18] = biological target: Env of HIV isolate CNE19 (clade BC) (HIV)
[19] = biological target: Env of HIV isolate CNE40 (clade BC) (HIV)
[20] = biological target: Env of HIV isolate CNE8 (clade AE) (HIV)
[21] = biological target: Env of HIV isolate DJ263.8 (clade AG) (HIV)
[22] = biological target: Env of HIV isolate JRCSF.JB (clade B) (HIV)
[23] = biological target: Env of HIV isolate MN.3 (clade B) (HIV)
[24] = biological target: Env of HIV isolate MS208.A1 (clade A) (HIV)
[25] = biological target: Env of HIV isolate REJO.67 (clade B) (HIV)
[26] = biological target: Env of HIV isolate T250-4 (clade AG) (HIV)
[27] = biological target: Env of HIV isolate T255-34 (clade AG) (HIV)
[28] = biological target: Env of HIV isolate T257-31 (clade AG) (HIV)
[29] = biological target: Env of HIV isolate THRO.18 (clade B) (HIV)
[30] = biological target: Env of HIV isolate X1254.c3 (clade G) (HIV)
[31] = biological target: Env of HIV isolate YU2.DG (clade B) (HIV)
[32] = biological target: Env of HIV isolate ZM109.4 (clade C) (HIV)
[33] = biological target: Env of HIV isolate ZM197.7 (clade C) (HIV)
[34] = biological target: HIV Env of isolate 0077.v1.c16 (HIV)
[35] = biological target: HIV Env of isolate 16936-2.21 (HIV)
[36] = biological target: HIV Env of isolate 26191-2.48 (HIV)
[37] = biological target: HIV Env of isolate 426c (HIV)
[38] = biological target: HIV Env of isolate 6405.v4.c34 (HIV)
[39] = biological target: HIV Env of isolate BR025.9 (HIV)
[40] = biological target: HIV Env of isolate CNE21 (HIV)
[41] = biological target: HIV Env of isolate CNE40 (HIV)
[42] = biological target: HIV Env of isolate Ce1176.A3 (HIV)
[43] = biological target: HIV Env of isolate DU172.17 (HIV)
[44] = biological target: HIV Env of isolate NKU3006.ec1 (HIV)
[45] = biological target: HIV Env of isolate P0402.c2.11 (HIV)
[46] = biological target: HIV Env of isolate UG021.16 (HIV)
[47] = biological target: HIV Env of isolate UG024.2 (HIV)
[48] = biological target: HIV Env of isolate X2131.C1.B5 (HIV)
[49] = biological target: HIV Env of isolate ZM197.7 (HIV)
[50] = biological target: HIV Env of isolate ZM233.6 (HIV)

B1: ePGT121.15 (ePGT121.15.H6 VH and ePGT121.15.L1 VL) (antibody, V domains shown)
VH: QMQLQESGPGLVKPGETLSLTCSVSGASISSSYWSWLRETPGKGLEWIGYTHHSGDTNYAPSLKSRVHLGLHPSKNQVSLSLTSVTAADTAVYYCARTLHGRRIYGVVAFNEFFTYFYWEVWGKGTQVTVSS
VL: SDISVAPGETVRISCGGESIGSRAVQWYQHRAGQAPKLIIYNNQDRPPGIPERFSGSPDIDFGTTATLTITNVEAGDEATYYCHIWDSRRPTNWVFGGGTTLTVL
IC50, pseudovirus neutralization [1]: 2 ng/mL | IC50, pseudovirus neutralization [2]: 6 ng/mL | IC50, pseudovirus neutralization [3]: 3 ng/mL | IC50, pseudovirus neutralization [4]: 12500 ng/mL | IC50, pseudovirus neutralization [5]: 4 ng/mL | IC50, pseudovirus neutralization [6]: 28 ng/mL | IC50, pseudovirus neutralization [7]: 19 ng/mL | IC50, pseudovirus neutralization [8]: 1040 ng/mL | IC50, pseudovirus neutralization [9]: 3 ng/mL | IC50, pseudovirus neutralization [10]: 1 ng/mL | IC50, pseudovirus neutralization [11]: 2 ng/mL | IC50, pseudovirus neutralization [12]: 183 ng/mL | IC50, pseudovirus neutralization [13]: > 50000 ng/mL | IC50, pseudovirus neutralization [14]: 4 ng/mL | IC50, pseudovirus neutralization [15]: 4 ng/mL | IC50, pseudovirus neutralization [16]: 3 ng/mL | IC50, pseudovirus neutralization [17]: 2 ng/mL | IC50, pseudovirus neutralization [18]: 4 ng/mL | IC50, pseudovirus neutralization [19]: 28 ng/mL | IC50, pseudovirus neutralization [20]: > 50000 ng/mL | IC50, pseudovirus neutralization [21]: 13 ng/mL | IC50, pseudovirus neutralization [22]: 8 ng/mL | IC50, pseudovirus neutralization [23]: 4 ng/mL | IC50, pseudovirus neutralization [24]: > 50000 ng/mL | IC50, pseudovirus neutralization [25]: 1460 ng/mL | IC50, pseudovirus neutralization [26]: 2 ng/mL | IC50, pseudovirus neutralization [27]: 45 ng/mL | IC50, pseudovirus neutralization [28]: > 50000 ng/mL | IC50, pseudovirus neutralization [29]: > 50000 ng/mL | IC50, pseudovirus neutralization [30]: 4 ng/mL | IC50, pseudovirus neutralization [31]: 5 ng/mL | IC50, pseudovirus neutralization [32]: 3370 ng/mL | IC50, pseudovirus neutralization [33]: > 50000 ng/mL | IC80, pseudovirus neutralization [34]: > 50000 ng/mL | IC80, pseudovirus neutralization [35]: 7 ng/mL | IC80, pseudovirus neutralization [36]: 15 ng/mL | IC80, pseudovirus neutralization [37]: 1380 ng/mL | IC80, pseudovirus neutralization [38]: 9 ng/mL | IC80, pseudovirus neutralization [39]: 6 ng/mL | IC80, pseudovirus neutralization [40]: 4 ng/mL | IC80, pseudovirus neutralization [41]: 82 ng/mL | IC80, pseudovirus neutralization [42]: 10 ng/mL | IC80, pseudovirus neutralization [43]: 7 ng/mL | IC80, pseudovirus neutralization [44]: > 50000 ng/mL | IC80, pseudovirus neutralization [45]: 7 ng/mL | IC80, pseudovirus neutralization [46]: 22 ng/mL | IC80, pseudovirus neutralization [47]: 4720 ng/mL | IC80, pseudovirus neutralization [48]: 4 ng/mL | IC80, pseudovirus neutralization [49]: > 50000 ng/mL | IC80, pseudovirus neutralization [50]: 73 ng/mL
